Test results taken from patent US20220185876A1 (ATARGA, published 2022).
Changes are numbered by the printed parent chain.

B1: ExC17 (antibody, V domains shown)
VH: EVQLVQSGAEVRKPGASVKVSCKASGYTFTNHYMHWVRQAPGQGLEWMGIINPISGSTSNAQKLQGRVTFTRDTSANTAYMELSGLIPEDTAIYYCARDIVDAFDFWGQGTLVTVSS
VL: DIQLTQSPSSLSASVGDRVTITCRASQGISSALVWYQQKPGQAPRLLIYDASSLQSGIPARFSGSGSGTDFTLTISSLEPEDFAVYYCQQFNDLFTFGQGTKLEIK
notes: Monoclonal anti-FGF23 antibody
B2: ExA43 (antibody, V domains shown)
VH: B1 VH with D99E
VL: B1 VL with D1A, Q55E, L94Y
notes: as for B1
B3: ExA60 (antibody, V domains shown)
VH: B1 VH with T28S, I54N, F106Y
VL: AIQMTQSPSSLSASVGDRVTITCRASQGISSALVWYQQKPGKAPKLLIYDASSLESGVPSRFSGSGSGTDFTFTISSLQPEDIATYYCQQFNDYFTFGPGTKLEIK
notes: as for B1
B4: ExA28 (antibody, V domains shown)
VH: B1 VH
VL: B3 VL
notes: as for B1
B5: ExA11 (antibody, V domains shown)
VH: QVQLVQSGAELKKPGASVKVSCKASGYTFTNHYMHWVRQAPGQGLEWMGIINPISGSTTYAQKFQGRVTMTRDTSSSTAYMDLSRLTSDDTAVYYCARDIVDAFDFWGQGTTVTVSS
VL: B1 VL with D1A, Q55E, L94Y
notes: as for B1
B6: ExA35 (antibody, V domains shown)
VH: QVQLLESGAVLARPGTSVKISCKASGYTFTNHYMHWVKQRPGQGLEWIGIINPITGSSSNAQKFQGRVTITRDTSTSTVFMELSSLRSEDTAVYYCARDIVDAFDFWGQGTLVTVSS
VL: B1 VL with D1A, Q55E, L94Y
notes: as for B1
B7: ExC50 (antibody, V domains shown)
VH: B6 VH with T28S, I100L
VL: B1 VL with L94Y
notes: as for B1
B8: Exc23.3 (antibody, V domains shown)
VH: B1 VH
VL: B3 VL with A1D, R24K, E55Q, S56T
notes: as for B1
B9: Exc23.1 (antibody, V domains shown)
VH: B1 VH
VL: B3 VL with A1D, R24K, S56T, T96S
notes: as for B1
B10: Exc23 (antibody, V domains shown)
VH: B1 VH
VL: B3 VL with A1D, R24K, E55Q, S56T, T96S
notes: as for B1
B11: Exc23.2 (antibody, V domains shown)
VH: B1 VH
VL: B3 VL with A1D, R24K, E55Q, T96S
notes: as for B1
B12: Exc23.5 (antibody, V domains shown)
VH: B1 VH
VL: B3 VL with R24K, E55Q, S56T, T96S
notes: as for B1
B13: Exc23.4 (antibody, V domains shown)
VH: B1 VH
VL: B3 VL with A1D, E55Q, S56T, T96S
notes: as for B1

What follows are binders tested against T1, human FGF23 (human, UniProt Q9GZV9 25-251) (assay: ELISA, binding to human FGF23 (A450 against log mAb concentration)).
T1 construct: also called recombinant human FGF-23; Fibroblast Growth Factor 23
T1 sequence: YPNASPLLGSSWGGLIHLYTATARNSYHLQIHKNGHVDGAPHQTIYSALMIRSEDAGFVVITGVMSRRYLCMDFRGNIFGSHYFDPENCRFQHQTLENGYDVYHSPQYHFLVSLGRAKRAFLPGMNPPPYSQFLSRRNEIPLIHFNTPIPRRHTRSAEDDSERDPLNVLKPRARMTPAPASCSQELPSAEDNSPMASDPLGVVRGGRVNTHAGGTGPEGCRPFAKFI

Going from B1 to B2, the EC50 rises from 0.0181 µg/mL to 0.0278 µg/mL (1.5-fold).

B3 and B4 are within 1.5-fold of each other in EC50: 0.0233 µg/mL for the first, 0.0248 µg/mL for the second.

B5 and B6 are within 1.5-fold of each other in EC50: 0.0267 µg/mL for the first, 0.0238 µg/mL for the second.

Binder B7 has an EC50 of 0.0204 µg/mL.

Each binder was assayed against T1, human FGF23 (assay: cell-based or functional assay).

B8 and B9 are within 1.5-fold of each other in “IC50, neutralisation of recombinant human FGF23-stimulated proliferation of NIH-3T3 cells (fluorescence)” value (“IC50, neutralisation” below): 1.29 µg/mL for the first, 1.63 µg/mL for the second.

Biological target: T1, human FGF23
Experiment: cell-based or functional assay
Remark: another data set of the same source

Going from B1 to B3, the “IC50, neutralisation” value rises from 0.2 µg/mL to 0.5 µg/mL (2.5-fold).

B4 and B5 are within 1.5-fold of each other in “IC50, neutralisation” value: 0.316 µg/mL for the first, 0.411 µg/mL for the second.

First: B6
Second: B7
The “IC50, neutralisation” value of the first is 1.8-fold higher: 0.355 µg/mL for the first, 0.199 µg/mL for the second.

Biological target: T1, human FGF23
Experiment: ELISA, binding to human FGF23 (A450 against log mAb concentration)
Remark: another data set of the same source

B10 and B11 are within 1.5-fold of each other in EC50: 0.0295 µg/mL for the first, 0.0262 µg/mL for the second.

B8 and B12 are within 1.5-fold of each other in EC50: 0.0286 µg/mL for the first, 0.0273 µg/mL for the second.

B9 and B13 are within 1.5-fold of each other in EC50: 0.0332 µg/mL for the first, 0.0266 µg/mL for the second.
